According to the supplement of paper PMC10724198:
± gives the standard deviation of the averaged measurements.

Key:
Saccharomyces cerevisiae [1] = experiment: protein stability index of tFT-peptide fusion (C-terminal peptide) (PSI (0-1 scale)); higher = more stable (slower turnover)
Procedure: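 MPS profiling in S. cerevisiae of the tFT-X12 degron library: putative degron peptides plus stable controls, 12 aa, fused to the C-terminus of a sfGFP-mCherry timer. Cells are FACS-sorted into 8 mCherry/sfGFP bins and deep-sequenced. PSI runs from 0 (unstable) to 1 (stable). Backgrounds are wild type, das1Δ and doa10Δ at 30 °C, and wild type, das1Δ, cdc34-1 and cdc53-1 at 37 °C; 2-3 technical replicates each.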

Saccharomyces cerevisiae [2] = experiment: as above; settings: genetic background: wild type; temperature: 30 C
[3] = genetic background: cdc34-1, temperature: 37 C
[4] = genetic background: cdc53-1, temperature: 37 C
[5] = genetic background: das1 deletion, temperature: 30 C
[6] = genetic background: das1 deletion, temperature: 37 C
[7] = genetic background: doa10 deletion, temperature: 30 C
[8] = genetic background: wild type, temperature: 30 C
[9] = genetic background: wild type, temperature: 37 C
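Also: PSI is a weighted mean of sequencing reads over stability bins, variants kept only with over 10 reads, mCherry proximal and sfGFP distal, peptide attached via GGGS linker.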

Sequence	protein stability index (Saccharomyces cerevisiae [1]; [3])	protein stability index (Saccharomyces cerevisiae [1]; [4])	protein stability index (Saccharomyces cerevisiae [1]; [5])	protein stability index (Saccharomyces cerevisiae [1]; [6])	protein stability index (Saccharomyces cerevisiae [1]; [7])	protein stability index (Saccharomyces cerevisiae [1]; [8])	protein stability index (Saccharomyces cerevisiae [1]; [9])	protein stability index (Saccharomyces cerevisiae [2])
LSFLSLIFSICY	0.43162 ± 0.0004	0.449 ± 0.054	0.356 ± 0.021	0.526 ± 0.066	0.355 ± 0.0012	0.333 ± 0.037	0.474 ± 0.012	0.461 ± 0.022
WCAVRVWFGAAL	0.648 ± 0.052	0.676 ± 0.028	0.5731 ± 0.0039	0.693 ± 0.017	0.3927 ± 0.0016	0.424 ± 0.01	0.56132 ± 0.00042	0.505 ± 0.014
CSSIFSSSDCYA	0.681 ± 0.059	0.7582 ± 0.0047	0.672 ± 0.029	0.7219 ± 0.0061	0.68 ± 0.01	0.68 ± 0.018	0.731 ± 0.011	0.7457 ± 0.0014
GVVCWLVVTGFL	0.3865 ± 0.0018	0.48 ± 0.0076	0.286 ± 0.058	0.524 ± 0.0095	0.255 ± 0.0087	0.3 ± 0.019	0.463 ± 0.052	0.429 ± 0.013
GLIICRRCLWCC	0.49 ± 0.01	0.527 ± 0.029	0.36 ± 0.031	0.5909 ± 0.00095	0.1721 ± 0.00088	0.182 ± 0.021	0.255 ± 0.01	0.267 ± 0.05
DFCCGVILTCVC	0.0751 ± 0.0081	0.106 ± 0.011	0.191 ± 0.025	0.233 ± 0.0083	0.156 ± 0.012	0.184 ± 0.019	0.193 ± 0.023	0.279 ± 0.01
DCLSFVLFLFLC	0.203 ± 0.038	0.259 ± 0.015	0.239 ± 0.025	0.39151 ± 0.00036	0.149 ± 0.007	0.134 ± 0.022	0.149 ± 0.0066	0.183 ± 0.017
PTYTKYRTRQIN	0.528 ± 0.066	0.745 ± 0.025	0.62 ± 0.011	0.7536 ± 0.0066	0.0947 ± 0.015	0.133 ± 0.04	0.156 ± 0.024	0.0994 ± 0.044
VAFLWVAFCFSG	0.205 ± 0.0023	0.355 ± 0.044	0.224 ± 0.03	0.3883 ± 0.0035	0.178 ± 0.019	0.203 ± 0.016	0.366 ± 0.021	0.276 ± 0.046
WLVIWPRKLSTV	0.588 ± 0.039	0.632 ± 0.005	0.477 ± 0.027	0.6179 ± 0.0036	0.359 ± 0.014	0.397 ± 0.022	0.573 ± 0.031	0.481 ± 0.0083
VFSLAFYLVLFF	0.326 ± 0.063	0.349 ± 0.0065	0.346 ± 0.025	0.46 ± 0.015	0.415 ± 0.011	0.319 ± 0.029	0.418 ± 0.037	0.343 ± 0.056
IGSARIKLLCYH	0.6024 ± 0.0044	0.705 ± 0.014	0.592 ± 0.017	0.7434 ± 0.0024	0.124 ± 0.017	0.165 ± 0.027	0.331 ± 0.031	0.213 ± 0.0061
YPFIPLIVCGFF	0.401 ± 0.028	0.41 ± 0.0085	0.344 ± 0.024	0.4747 ± 0.00094	0.395 ± 0.019	0.338 ± 0.018	0.448 ± 0.01	0.404 ± 0.02
YFFFFLHFNFAF	0.145 ± 0.062	0.169 ± 0.036	0.246 ± 0.023	0.35 ± 0.0091	0.313 ± 0.034	0.225 ± 0.059	0.267 ± 0.021	0.2803 ± 0.002
VVGRWGFVVECW	0.268 ± 0.014	0.301 ± 0.024	0.254 ± 0.037	0.394 ± 0.0095	0.227 ± 0.011	0.249 ± 0.025	0.366 ± 0.0046	0.3595 ± 0.00014
ICWVSLYFSMLV	0.457 ± 0.018	0.479 ± 0.019	0.373 ± 0.018	0.5069 ± 0.0045	0.3348 ± 0.00038	0.333 ± 0.025	0.464 ± 0.028	0.406 ± 0.084
CPVSFSFCLKVL	0.348 ± 0.019	0.431 ± 0.03	0.32 ± 0.026	0.468 ± 0.016	0.0628 ± 0.019	0.0823 ± 0.021	0.115 ± 0.063	0.045 ± 0.016
PLRLRCASLFAN	0.62 ± 0.021	0.692 ± 0.0095	0.618 ± 0.034	0.737 ± 0.04	0.304 ± 0.018	0.362 ± 0.019	0.5647 ± 0.002	0.498 ± 0.086
SVLVWVFGLFVI	0.411 ± 0.012	0.525 ± 0.013	0.431 ± 0.024	0.56 ± 0.012	0.42 ± 0.028	0.392 ± 0.028	0.495 ± 0.015	0.446 ± 0.012
VALAVRVVVCGA	0.0316 ± 0.014	0.0354 ± 0.0067	0.122 ± 0.039	0.106 ± 0.0073	0.0887 ± 0.0097	0.108 ± 0.028	0.0779 ± 0.01	0.142 ± 0.041

Sequence	protein stability index (Saccharomyces cerevisiae [1]; [3])	protein stability index (Saccharomyces cerevisiae [1]; [4])	protein stability index (Saccharomyces cerevisiae [1]; [5])	protein stability index (Saccharomyces cerevisiae [1]; [6])	protein stability index (Saccharomyces cerevisiae [1]; [7])	protein stability index (Saccharomyces cerevisiae [1]; [8])	protein stability index (Saccharomyces cerevisiae [1]; [9])	protein stability index (Saccharomyces cerevisiae [2])
YIRINNIYWKKS	0.58 ± 0.016	0.755 ± 0.024	0.669 ± 0.023	0.722 ± 0.012	0.182 ± 0.0071	0.227 ± 0.034	0.536 ± 0.032	0.399 ± 0.029
GCYWPKTLGILC	0.546 ± 0.018	0.555 ± 0.02	0.408 ± 0.021	0.568 ± 0.0092	0.346 ± 0.0062	0.378 ± 0.025	0.56 ± 0.032	0.465 ± 0.004
AGGGGRFWVCVG	0.656 ± 0.027	0.7348 ± 0.0059	0.6377 ± 0.0058	0.726 ± 0.02	0.215 ± 0.00078	0.258 ± 0.028	0.5539 ± 0.0019	0.364 ± 0.11
QRTNTIINKRIV	0.704 ± 0.036	0.753 ± 0.016	0.623 ± 0.028	0.736 ± 0.012	0.478 ± 0.03	0.477 ± 0.028	0.705 ± 0.041	0.565 ± 0.096
SNFFPVPLLLFR	0.211 ± 0.0084	0.117 ± 0.024	0.309 ± 0.016	0.383 ± 0.0094	0.647 ± 0.024	0.297 ± 0.019	0.327 ± 0.031	0.383 ± 0.088
LFWTLSKYLIIC	0.284 ± 0.015	0.42 ± 0.024	0.34 ± 0.04	0.491 ± 0.011	0.0759 ± 0.0053	0.108 ± 0.013	0.159 ± 0.083	0.135 ± 0.079
LKCFLVLTFWFS	0.187 ± 0.045	0.231 ± 0.012	0.222 ± 0.028	0.367 ± 0.018	0.184 ± 0.021	0.194 ± 0.027	0.3 ± 0.0095	0.263 ± 0.0049
WGGEFLSLTLSS	0.732 ± 0.028	0.761 ± 0.018	0.664 ± 0.02	0.7821 ± 0.0073	0.679 ± 0.025	0.683 ± 0.021	0.743 ± 0.025	0.684 ± 0.027
LVRGSRLIVIVG	0.444 ± 0.01	0.473 ± 0.028	0.333 ± 0.025	0.5181 ± 0.0045	0.289 ± 0.0053	0.328 ± 0.034	0.492 ± 0.019	0.423 ± 0.026
HSPPVPFPPPTS	0.647 ± 0.068	0.733 ± 0.035	0.651 ± 0.034	0.72 ± 0.0074	0.688 ± 0.012	0.672 ± 0.017	0.694 ± 0.024	0.358 ± 0.033
GVVVGVLLVCGW	0.268 ± 0.028	0.435 ± 0.0061	0.28 ± 0.037	0.489 ± 0.0051	0.223 ± 0.016	0.265 ± 0.013	0.4614 ± 0.0016	0.36 ± 0.0081
ASSFYVDLVLVS	0.457 ± 0.014	0.464 ± 0.024	0.341 ± 0.034	0.516 ± 0.013	0.286 ± 0.0084	0.327 ± 0.046	0.484 ± 0.0065	0.447 ± 0.0094
LGVVVGGVRGVG	0.43 ± 0.04	0.49 ± 0.0086	0.461 ± 0.012	0.505 ± 0.0054	0.467 ± 0.012	0.46 ± 0.025	0.4913 ± 0.0033	0.448 ± 0.045
FHRSVVRLWLRN	0.49 ± 0.06	0.619 ± 0.024	0.604 ± 0.02	0.679 ± 0.0092	0.114 ± 0.0044	0.104 ± 0.031	0.181 ± 0.066	0.301 ± 0.041
YSRFALRPQLLV	0.553 ± 0.051	0.634 ± 0.013	0.512 ± 0.025	0.62 ± 0.029	0.172 ± 0.0042	0.184 ± 0.024	0.327 ± 0.0056	0.285 ± 0.011
FPFFLLAAPFLA	0.564 ± 0.007	0.621 ± 0.0096	0.546 ± 0.019	0.6439 ± 0.0013	0.16 ± 0.0077	0.19 ± 0.026	0.295 ± 0.026	0.237 ± 0.036
FLAPPFLPPPPA	0.693 ± 0.021	0.7351 ± 0.00039	0.672 ± 0.014	0.758 ± 0.016	0.683 ± 0.02	0.705 ± 0.011	0.737 ± 0.015	0.748 ± 0.016
KALSSSYFGTRL	0.69 ± 0.025	0.745 ± 0.015	0.648 ± 0.014	0.743 ± 0.0082	0.649 ± 0.019	0.6755 ± 0.0058	0.7128 ± 0.007	0.735 ± 0.062
PPPPPSRPFSPP	0.698 ± 0.042	0.7412 ± 0.0017	0.687 ± 0.0079	0.71 ± 0.024	0.689 ± 0.0074	0.6544 ± 0.0037	0.709 ± 0.013	0.502 ± 0.015
